Assays:
[1] = biological target: DDX3 (endogenous, full-length human DDX3 in tumor cell lysates), O00571
DDX3 (endogenous, full-length human DDX3 in tumor cell lysates), O00571, sequence (O00571 whole entry, looked up): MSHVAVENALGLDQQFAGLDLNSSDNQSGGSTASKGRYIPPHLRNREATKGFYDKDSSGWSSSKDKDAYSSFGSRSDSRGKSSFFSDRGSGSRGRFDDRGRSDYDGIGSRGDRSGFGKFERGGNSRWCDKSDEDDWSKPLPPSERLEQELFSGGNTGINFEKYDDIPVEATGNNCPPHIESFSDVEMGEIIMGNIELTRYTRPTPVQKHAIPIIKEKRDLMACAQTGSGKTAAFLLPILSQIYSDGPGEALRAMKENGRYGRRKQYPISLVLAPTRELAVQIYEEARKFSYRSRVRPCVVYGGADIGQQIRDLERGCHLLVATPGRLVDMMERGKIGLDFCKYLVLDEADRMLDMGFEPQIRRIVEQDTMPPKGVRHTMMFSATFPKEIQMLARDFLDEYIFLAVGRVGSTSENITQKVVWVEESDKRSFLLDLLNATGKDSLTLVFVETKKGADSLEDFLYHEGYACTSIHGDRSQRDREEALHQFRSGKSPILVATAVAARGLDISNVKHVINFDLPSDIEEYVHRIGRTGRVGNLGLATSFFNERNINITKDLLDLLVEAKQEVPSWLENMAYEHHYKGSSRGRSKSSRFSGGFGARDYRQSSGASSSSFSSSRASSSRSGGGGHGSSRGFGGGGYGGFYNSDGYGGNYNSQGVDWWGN

cIAP1, Q13490, sequence (Q13490 whole entry): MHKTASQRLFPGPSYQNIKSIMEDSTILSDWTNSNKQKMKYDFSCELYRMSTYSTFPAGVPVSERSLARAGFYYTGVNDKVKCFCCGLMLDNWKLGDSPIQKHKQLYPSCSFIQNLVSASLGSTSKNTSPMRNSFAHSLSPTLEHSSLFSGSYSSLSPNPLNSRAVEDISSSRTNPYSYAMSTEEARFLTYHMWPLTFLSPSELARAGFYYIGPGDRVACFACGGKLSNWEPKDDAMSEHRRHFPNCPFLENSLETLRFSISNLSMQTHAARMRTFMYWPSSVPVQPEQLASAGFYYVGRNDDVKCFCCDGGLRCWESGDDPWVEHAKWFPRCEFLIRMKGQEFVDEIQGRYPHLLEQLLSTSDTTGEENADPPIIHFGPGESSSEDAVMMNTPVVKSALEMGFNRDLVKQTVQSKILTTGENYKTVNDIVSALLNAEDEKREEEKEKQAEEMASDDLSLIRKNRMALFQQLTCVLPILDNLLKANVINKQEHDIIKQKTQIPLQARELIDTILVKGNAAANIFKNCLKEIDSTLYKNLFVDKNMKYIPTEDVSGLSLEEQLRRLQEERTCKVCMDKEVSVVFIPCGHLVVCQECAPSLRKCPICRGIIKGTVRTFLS

Protein | cleavage of DR5-associated DDX3 by active caspase, Western blot with anti-DDX3 antibody [1] | caspase-8 protease activity on the fluorogenic substrate Ac-IETD-AMC (cIAP1, Q13490)
Active Caspase-2 (protein) GPVCLQVKPCTPEFYQTHFQLAYRLQSRPRGLALVLSNVHFTGEKELEFRSGGDVDHSTLVTLFKLLGYDVHVLCDQTAQEMQEKLQNFAQLPAHRVTDSCIVALLSHGVEGAIYGVDGKLLQLQEVFQLFDNANCPSLQNKPKMFFIQACRGDETDRGVDQQDGKNHAGSPGCEESDAGKEKLPKMRLPTRSDMICGYACLKGTAAMRNTKRGSWYIEALAQVFSERACDMHVADMLVKVNALIKDREGYAPGTEFHRCKEMSEYCSTLCRHLYLFPGHPPT | caspase-2 exhibited similar protease potential in both cells | –
Active Caspase-8 (protein) SESQTLDKVYQMKSKPRGYCLIINNHNFAKAREKVPKLHSIRDRNGTHLDAGALTTTFEELHFEIKPHDDCTVEQIYEILKIYQLMDHSNMDCFICCILSHGDKGIIYGTDGQEAPIYELTSQFTGLKCPSLAGKPKVFFIQACQGDNYQKGIPVETDSEEQPYLEMDLSSPQTRYIPDEADFLLGMATVNNCVSYRNPAEGTWYIQSLCQSLRERCPRGDDILTILTEVNYEVSNKDDKKNMGKQMPQPTFTLRKKLVFPSD | DDX3 cleavage by caspase-8 in resistant cells was highly attenuated compared to sensitive cells | purified cIAP1 also suppressed caspase-8 protease activity completely

— patent US20110104143
